In experiment [1] the target is T1, Programmed Death 1 (PD-1) Fc chimera (R&D Systems, Catalog # 1086-PD-050) (human, UniProt Q15116 25-167).
T1 construct: Bought reagent; not shown: Fc part of the bought chimera (captured by anti-human Fc tips)
The experiment in a line: BLI (Octet), PD-1 Fc captured on anti-human Fc tips, TPP-999 at 10 µg/mL in PBS as analyte. How it is done:
(§1) Final dissociation in PBS was performed in the last step on the Bio-Layer Interferometry (BLI) data.
(In general: BLI is a label-free optical method that tracks binding on a fibre tip over time.)

In experiment [2] the target is T1, Programmed Death 1 (PD-1) Fc chimera …. The experiment in a line: BLI (Octet), PD-1 Fc captured on anti-human Fc tips, TPP-1001 at 10 µg/mL in PBS as analyte. As for the experimental part:
as §1

Experiment [3] has the same target. Description: BLI (Octet), PD-1 Fc captured on anti-human Fc tips, TPP-993 in PBS as analyte. As for the experimental part:
as §1

Experiment [4] has the same target. Description: BLI (Octet Red), TPP-985 loaded on anti-human IgG Fc tips, DLAT 10 µg/mL bound first, then PD-1 Fc. As for the experimental part:
(§2) Antibodies and antibody fusions were diluted to 16 μg/mL in PBS and loaded onto anti-human IgG Fc tips (ForteBio, Catalog # 18-5064). Human DLAT recombinant protein (ProSpec, Catalog # ENZ-082) was diluted into PBS to 10 μg/mL. […] Finally, a dissociation step in PBS was performed to determine dissociation from the bound antibodies.

Experiment [5] shares this target. The experiment in a line: BLI (Octet Red), TPP-990 loaded on anti-human IgG Fc tips, DLAT 10 µg/mL bound first, then PD-1 Fc. How it is done:
as §2

For experiment [6] the target is unchanged. The experiment in a line: BLI, PD-1 Fc loaded on anti-human IgG tips, fusion as analyte, dissociation in PBS.

T1 sequence (Q15116 25-167, change not shown): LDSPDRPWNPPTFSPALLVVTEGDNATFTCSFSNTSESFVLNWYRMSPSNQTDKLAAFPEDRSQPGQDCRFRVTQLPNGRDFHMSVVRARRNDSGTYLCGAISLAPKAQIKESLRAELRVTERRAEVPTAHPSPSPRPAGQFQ

B1: TPP-999 (PD2 with PD-L1 fused to the C-terminus of the light chain) (Fab)
heavy: EVQLVESGGGLVKPGGSLRLSCAASGFTFGSYSMTWVRQAPGKGLEWVSFISTVSTYIYYPDSVKGRFTISRDNAKNSLYLQMNSLRAEDTAVYYCARVSGRGSAARDGEKGTYYYYMDVWGKGTTVTVSSASTKGPSVFPLAPSSKSTSGGTAALGCLVKDYFPEPVTVSWNSGALTSGVHTFPAVLQSSGLYSLSSVVTVPSSSLGTQTYICNVNHKPSNTKVDKRVEPKSC
light: SSELTQDPAVSVALGQTVTITCQGDSLRSYYASWYQQKPGQAPVLVIFGKNNRPSGIPDRFSGSRSGNTASLTITGAQAEDEADYFCDSRDSSANHWVFGGGTKLTVLQPKAAPSVTLFPPSSEELQANKATLVCLISDFYPGAVTVAWKADSSPVKAGVETTTPSKQSNNKYAASSYLSLTPEQWKSHKSYSCQVTHEGSTVEKTVAPTECSGGSSRSSSSGGGGSGGGGFTVTVPKDLYVVEYGSNMTIECKFPVEKQLDLAALIVYWEMEDKNIIQFVHGEEDLKVQHSSYRQRARLLKDQLSLGNAALQITDVKLQDAGVYRCMISYGGADYKRITVKVNA
notes: Fab fusion with the human PD-L1 variable-like domain
Take B1: the binding result in experiment [1] is reported as “binds”.

B2: TPP-1001 (PD2 with PD-L1 fused to the N-terminus of the light chain) (Fab)
heavy: B1 heavy
light: FTVTVPKDLYVVEYGSNMTIECKFPVEKQLDLAALIVYWEMEDKNIIQFVHGEEDLKVQHSSYRQRARLLKDQLSLGNAALQITDVKLQDAGVYRCMISYGGADYKRITVKVNAGGSSRSSSSGGGGSGGGGSSELTQDPAVSVALGQTVTITCQGDSLRSYYASWYQQKPGQAPVLVIFGKNNRPSGIPDRFSGSRSGNTASLTITGAQAEDEADYFCDSRDSSANHWVFGGGTKLTVLQPKAAPSVTLFPPSSEELQANKATLVCLISDFYPGAVTVAWKADSSPVKAGVETTTPSKQSNNKYAASSYLSLTPEQWKSHKSYSCQVTHEGSTVEKTVAPTECS
notes: as for B1
With B2, the binding result in experiment [2] is recorded as “binds”.

B3: TPP-993 (PD2 Fab having no PD-L1 domain and no linker) (Fab)
heavy: B1 heavy
light: SSELTQDPAVSVALGQTVTITCQGDSLRSYYASWYQQKPGQAPVLVIFGKNNRPSGIPDRFSGSRSGNTASLTITGAQAEDEADYFCDSRDSSANHWVFGGGTKLTVLQPKAAPSVTLFPPSSEELQANKATLVCLISDFYPGAVTVAWKADSSPVKAGVETTTPSKQSNNKYAASSYLSLTPEQWKSHKSYSCQVTHEGSTVEKTVAPTECS
As for B3, in experiment [3], the binding result is “no binding (tested: 10 µg/mL)”.

B4: TPP-985, human IgG2/4 PD5 antibody (antibody)
heavy: QLQLQESGPGLVKPSETLSLTCIVSGGSISRNSYYWGWIRQPPGKGLEWIGSIVYSGSTYHQPSLKSRVTIFLDTSKNQFFLKLTSVTAADTAVYYCARGTRATTWPPPIGYWGQGTLVTVSSASTKGPSVFPLAPCSRSTSESTAALGCLVKDYFPEPVTVSWNSGALTSGVHTFPAVLQSSGLYSLSSVVTVPSSNFGTQTYTCNVDHKPSNTKVDKTVERKCCVECPPCPAPPVAGPSVFLFPPKPKDTLMISRTPEVTCVVVDVSQEDPEVQFNWYVDGVEVHNAKTKPREEQFNSTYRVVSVLTVLHQDWLNGKEYKCKVSNKGLPSSIEKTISKAKGQPREPQVYTLPPSQEEMTKNQVSLTCLVKGFYPSDIAVEWESNGQPENNYKTTPPVLDSDGSFFLYSRLTVDKSRWQEGNVFSCSVMHEALHNHYTQKSLSLSLGK
light: QSVLTQPPSVSAAPGQKVTVSCFGSSSNIGNYFASWYQQLPGAAPRLLIYGNNERPSGIPDRFSGSKSGTSATLVITGLQTGDEAAYYCATWDSSLSAVVFGGGTKLTVLGQPKANPTVTLFPPSSEELQANKATLVCLISDFYPGAVTVAWKADGSPVKAGVETTKPSKQSNNKYAASSYLSLTPEQWKSHRSYSCQVTHEGSTVEKTVAPTECS
notes: also called PD5_IgG2-4; anti-DLAT IgG2-4 antibody with no PD-L1 variable-like domain
Take B4: the binding result in experiment [4] is reported as “no binding (tested: 12.5 µg/mL)”.

B5: TPP-990, human IgG2/4 PD5 antibody, C-terminus PD-L1 LC (antibody)
heavy: B4 heavy
light: QSVLTQPPSVSAAPGQKVTVSCFGSSSNIGNYFASWYQQLPGAAPRLLIYGNNERPSGIPDRFSGSKSGTSATLVITGLQTGDEAAYYCATWDSSLSAVVFGGGTKLTVLGQPKANPTVTLFPPSSEELQANKATLVCLISDFYPGAVTVAWKADGSPVKAGVETTKPSKQSNNKYAASSYLSLTPEQWKSHRSYSCQVTHEGSTVEKTVAPTECSGGSSRSSSSGGGGSGGGGFTVTVPKDLYVVEYGSNMTIECKFPVEKQLDLAALIVYWEMEDKNIIQFVHGEEDLKVQHSSYRQRARLLKDQLSLGNAALQITDVKLQDAGVYRCMISYGGADYKRITVKVNA
notes: Antibody fused with the human PD-L1 variable-like domain
With B5, the binding result in experiment [5] is “no binding (tested: 12.5 µg/mL)”.

B6: TPP-1986 (murine IgG1 Fc Silent, N-terminus_PDL1_LC_PD5) (antibody)
heavy: QLQLQESGPGLVKPSETLSLTCIVSGGSISRNSYYWGWIRQPPGKGLEWIGSIVYSGSTYHQPSLKSRVTIFLDTSKNQFFLKLTSVTAADTAVYYCARGTRATTWPPPIGYWGQGTLVTVSSAKTTPPSVYPLAPGSAAQTNSMVTLGCLVKGYFPEPVTVTWNSGSLSSGVHTFPAVLQSDLYTLSSSVTVPSSTWPSQTVTCNVAHPASSTKVDKKIVPRDCGCKPCICTVPEQSSVFIFPPKPKDVLMISLTPKVTCVVVDISKDDPEVQFSWFVDDVEVHTAQTKPREEQINSTFRSVSELPILHQDWLNGKEFKCRVNSAAFPAPIEKTISKTKGRPKAPQVYTIPPPKEQMAKDKVSLTCMITNFFPEDITVEWQWNGQPAENYKNTQPIMDTDGSYFVYSKLNVQKSNWEAGNTFTCSVLHEGLHNHHTEKSLSHSPGK
light: FTVTVPKDLYVVEYGSNMTIECKFPVEKQLDLAALIVYWEMEDKNIIQFVHGEEDLKVQHSSYRQRARLLKDQLSLGNAALQITDVKLQDAGVYRCMISYGGADYKRITVKVNAGGSSRSSSSGGGGSGGGGQSVLTQPPSVSAAPGQKVTVSCFGSSSNIGNYFASWYQQLPGAAPRLLIYGNNERPSGIPDRFSGSKSGTSATLVITGLQTGDEAAYYCATWDSSLSAVVFGGGTKLTVLGQPKSSPSVTLFPPSSEELETNKATLVCTITDFYPGVVTVDWKVDGTPVTQGMETTQPSKQSNNKYMASSYLTLTARAWERHSSYSCQVTHEGHTVEKSLSRADCS
notes: also called huPDL1; Human PDL1_Mouse PD5
Turning to B6, the binding result in experiment [6] is given as “binds”.

Source of the values: patent publication US20240026032A1 (Alexion, published 2024).
